# Laboratory results published in the DeepSol protein solubility set.
# Test: soluble on expression in E. coli; label from the status in PepcDB or PDB records
row,Sequence,soluble on expression in E. coli
1,MAGDPNSMNLKQSIEEIINQPEYEPMSVSDFQDALGLSSADSFRDLIKVLVELEQSGLIERTKTDRYQKKHSSKGHSKLIKGTLSQNKKGFAFLRPEDEDMEDIFIPPTKINRALDGDTVIVEIHQSKGEHKGKIEGEVKSIEKHSVTQVVGTYSEARHFGFVIPDDKRIMQDIFIPKGQSLGAVDGHKVLVQITKYADGSDNPEGHISAILGHKNDPGVDILSIIYQHGIEIEFPDEVLQEAEAVPDHIENTEIKGRHDLRDELTITIDGADAKDLDDAISVKKLANGNTQLTVSIADVSYYVTEGSALDKEAYDRATSVYLVDRVIPMIPHRLSNGICSLNPNVDRLTLSCRMEIDASGRVVKHEIFDSVIHSDYRMTYDAVNQIITEKDPNIREQYKEITPMLDLAQDLSNRLIQMRKRRGEIDFDINEAKVLVNEDGIPTDVQLRQRGEGERLIESFMLIANETVAEHFSKLDVPFIYRVHEQPKSDRLRQFFDFITNFGIMIKGTGEDIHPTTLQKVQEEVEGRPEQMVISTMMLRSMQQAHYDDVNLGHFGLSAEYYTHFTSPIRRYPDLTVHRLIRKYLIEKSMDNKEVKRWEDKLPELAEHTSKRERRAIEAERDTDELKKAEYMIQHIGDEFEGIVSSVANFGMFIELPNTIEGMVHIANMTDDYYRFEERQMALIGERQAKVFRIGDTVKVKVTHVDVDERLIDFQIVGMPLPKNDRSQRPARGKTIQAKTRGKSLDKSKSDDKGRKKKGSQRKGKNERKNDKSGNSKHKPFYKDKSVKKKARRKKKLEHHHHHH,soluble
2,MDQECIENYAKVNGIYIYYKLCKAPEEKAKLMTMHGGPGMSHDYLLSLRDMTKEGITVLFYDQFGCGRSEEPDQSKFTIDYGVEEAEALRSKLFGNEKVFLMGSSYGGALALAYAVKYQDHLKGLIVSGGLSSVPLTVKEMNRLIDELPAKYRDAIKKYGSSGSYENPEYQEAVNYFYHQHLLRSEDWPPEVLKSLEYAERRNVYRIMNGPNQFTITGTIKDWDITDKISAIKIPTLITVGEYDEVTPNVARVIHEKIAGSELHVFRDCSHLTMWEDREGYNKLLSDFILKHL,soluble
3,MGGSHHHHHHGMASETGPEDPSSMPEESSPRRTPQSIPYQDLPHLVNADGQYLFCRYWKPTGTPKALIFVSHGAGEHSGRYEELARMLMGLDLLVFAHDHVGHGQSEGERMVVSDFHVFVRDVLQHVDSMQKDYPGLPVFLLGHSMGGAIAILTAAERPGHFAGMVLISPLVLANPESATTFKVLAAKVLNLVLPNLSLGPIDSSVLSRNKTEVDIYNSDPLICRAGLKVCFGIQLLNAVSRVERALPKLTVPFLLLQGSADRLCDSKGAYLLMELAKSQDKTLKIYEGAYHVLHKELPEVTNSVFHEINMWVSQRTATAGTASPP,not soluble
4,MSKRRVVVTGMGMLSPVGNTVESSWKALLAGQSGIVNIEHFDTTNFSTRFAGLVKGFDCEQYMSKKDARKMDLFIQYGIAAGIQALEDSGLEVNEENAARIGVAIGSGIGGLELIETGHQALIEKGPRKVSPFFVPSTIVNMIAGNLSIMRGLRGPNIAISTACTTGLHNIGHAARMIAYGDADAMVAGGAEKASTPLGMAGFGAAKALSTRNDEPQKASRPWDKDRDGFVLGDGAGIMVLEEYEHAKARGAKIYAEVVGFGMSGDAYHMTSPSEDGSGGALAMEAAMRDAGVTGEQIGYVNAHGTSTPAGDVAEVKGIKRALGEAGTKQVLVSSTKSMTGHLLGAAGSVEAIITVMSLVDQMVPPTINLDNPEEGLGVDLVPHVARKVESMEYAMCNSFGFGGTNGSLIFKRM,not soluble
5,EEQPRLFELLGQPGYKATWHAMFKGESDVPKWVSDASGPSSPSTSLSLEGQPYVLANSCKPHDCGNNRLLVAFRGDKSAAYGLQVSLPDEPAEVMQTPSKYATYRWYGEPSRQVRELLMKQLESDPNWKLEHHHHHH,soluble
6,MENFAYYTPTRLIFGKGLAIITPRWMRHILNDHTLERFVKFSVDIYGLLRLRKRTFMKYLKHHCRIYEEYNRGRIFGQGVCLFIIYYKLEHHHHHH,not soluble
7,SAQTTDTGWMTNPQHPPVQTRFVLTGQQDPQAKTLTGYLDVKLTGDWKTYWRSPGEGGVAPSIDWQNSQNLSKVDWQWPYPQKFELLGIETLGYKGDTLFPMTLHIDNMSKPVTIDAVLTLSSCTTICVLTDYQIQLTFLPSELQIDEQVMFSYAQAVSNVPQPSPFIDVTQASWDANQSKLQIKLTNTQGWNQPQVLVDGVDEATRDYSFKLEGIHQEGNTVTASYLVDTWLGDVELSDQSLFVTIKDANLLAEETTQAIAEAIVDPLPSTSVVS,soluble
8,MKEYLTNERIRAKQVRVVGPDGKQLGIMDTREALRLAQEMDLDLVLVGPNADPPVARIMDYSKWRYEQQMAEKEARKKAKRTEVKSIKFRVKIDEHDYQTKLGHIKRFLQEGHKVKVTIMFRGREVAHPELGERILNRVTEDLKDLAVVEMKPEMLGRDMNMLLAPVKVSA,soluble
9,GSHMPNYDTSIDIEDIKKILPHRYPFLLVDKVIYMQPNKTIIGLKQVSTNEPFFNGHFPQKQIMPGVLQIEALAQLAGILCLKSDDSQKNNLFLFAGVDGVRWKKPVLPGDTLTMQANLISFKSSLGIAKLSGVGYVNGKVVINISEMTFALSK,soluble
10,MGSDKIHHHHHHMRIDIDSFNVLQVLVEEGSFAKASERLHKAQSAVSYQVKKLEQHLGVTLFNRDKYRAELTPEGKVILIEGQRLLEQLANIEHLASRFSQGWEPKLELVIDGSLPMEPIMTALKRMSEHNVPTKIQLNMEFLGGVQHRFERDKADLMLVKDYRSGPYYDAKPLPSITSVLVVANSHPLALSKAVSLSQLQQHVELTIEDSSPSRLGRDELQFGGDKVFYLSGFIMKKNALLKGLGFGWMPDFLIGEELAAGELVMVDFMGGSRFNYTPQLVSTLARPLGRAGQLFTELILQEFDLFHQDLADGSSGSGLG,not soluble
11,MGSDKIHHHHHHMRILILGAGKMGSFFTDILSFQHETAVFDVNPHQLRFVYNTYRFTTLEEIKEFEPELVINAATVKYTLDAFRKILPVLPKDCILSDIASVKTGLKKFYEESGFRYVSTHPMFGPTFASLSNLSSESAIIISESDHLGKVFFKDLYNSLNLNIFEYTFDEHDETVAYSLSIPFVSTFVFAAVMKHQEAPGTTFKKHMAIAKGLLSEDDYLLQEILFNPRTPSQVENIRTELKQLLEIITNKDAEGMKKYLTKIREKIK,not soluble
12,MPYTFENSEALLKNLKDAAPYISAAERFASFKGFVYDKRINIACTSEKLARAGFYSTASPEFPASAKCPFCMLEINFEQCDDPWEKHKSGSPHCEFVMIGEIEESELSFRIISNLAIRHATVRLYEELLGIVATLENGDIANENPITRADATRKLISFRSSSKLLTFDHRLATFQNFIFDKKRNVKCTSKKLAKAGWFSIANKKDKTSAKCPFCLVELDFDESDDPWEEHQKFSASCDFIKLGKLDEKKWTENEALMLGARITIMQKYEKGSWLIDELEKENRIDEIIKIRKIMIKPNHVLKRRRCSI,not soluble
13,QTVAIKMGADNGMLAFEPSTIEIQAGDTVQWVNNKLAPHNVVVEGQPELSHKDLAFSPGETFEATFSEPGTYTYYCEPHRGAGMVGKIVVQ,soluble
14,MRNAHAVEAMRVPHPVRGTVSLVEWHMARARNHINVLEENMTLLMEQAHANESLFYRLLHLQSRLVAADSLDEMLVRFHRWARDLGLAGATLRLFPDRWRLGAPSRYTHLALNRQAFEPLRIQRLGQSQHYLGPLNGPELLVVLEHHHHHH,soluble
15,NECVSKGFGCLPQSDCPQEARLSYGGCSTVCCDLSKLTGCKGKGGECNPLDRQCKELQAESASCGKGQKCCVWLH,soluble
16,MNASSEFTLQFESHAVRVQVDEAGTPWFNANDICTAVELLNPCAALAQHVGARNVSKRKIIDTIGRTQRANYLNEPGVLTLLIGSTKEAAKRLRRWLISEALPAAAVQKAGQHSVPQHHAPSISTPFQPTEDHTMNAITPFQFESHAVRTVVDDHGEVWFVGKDVADVLGYTNHNKALGDHCKGVPKRYPLQTPGGIQEIRIISEPDMLRLIVSSKLPAAERFERWVTSEVLPTIHKTGNRPALDHSTHSANAITPFQFESKDVRIQLDEASAPWFNANDVCSILEFGNPRQAIESHVDVEDVQKLDATDNLGRTRQTNHINESGLYALIMGSTKPAAKRFKRWVTSEVLPTLRKTGTYSTPGALPTLPGPTQDRIAALLLIGQYISTVPGVKPGIAAAATLACIKSNTNLTTEEIRRALPALRDPLCMLNATQLGKQLHCSAKAVNQLLASRGLQFRNERDDWELTEAGRVWGEAIPYSRNGHSSYQILWNPTVVDSLKVAA,soluble
17,SPRKESPLRTAVDAAALTTSDIARQLEVKVQRMNTAHEREANAISSFQQAYGIASAHLDRLLLRIPELPLPEIDDRDVDGGRVRGTFASLQRHHQALDDAISAMHQASEKVYTIPGKQATQEQDPALAQLLSVEKRRRSLGHALETLAGRGVEAGTATGLELNRVSSQVNDLVARRDALLRQRESGVQEGGLDSEELEMELQLTTSVLQRLRADLLGERQAMEATAKRLDQASRAALEGERSFSDAVRDRAWGELDNV,not soluble
18,MGSDKIHHHHHHMQDIDDFLRQHRITEVEAIIPDMAGIARGKIIPRNKFETGESMRLPQAVMVQTVTGDYPEDGTLTGVTDPDMVCVADASTICLIPWAVDPTAQVIHDCVHFDGSPVEISPRYVLRRVLDLYRARGWKPVVAPELEFYLVDMNKDPDLPLRPPVGRTGRAETGRQSYSIEAVNEFDPLFEDIYEYCELQGLDIDTLIHEVGAAQMEINFLHGDALSLADQVFLFKRTVREAALRHNMYATFMAKPMESEPGSAMHIHQSVVDIETGRNLFIGASGDVTPMFRSYLAGLQKYTPALMPIFAPYINSYRRLSRFMAAPINVQWGYDNRTVGFRIPHSAAAARRIENRIPGVDCNPYLAIAGTLAAGYLGVTQGLEPTEPLASDGYSLPYQLPRNLEEGLTLMSACAPLAEMLGEKFVKAYLALKETEYEAFFRVISSWERRHLLLHV,not soluble
19,MIKLTVSHHKLTASGHALFAKKGQDIVCAAVSGIIFGALPWFETNSIAVQEDATVPSLSLELVQPTAKLITGLSVVIMQLKTLAHSYPQFISFEDQRKDE,soluble
20,MVYNENTPHFYNKSGKETFMSNILFSVFPNENFIDMSLYQFGWEQCQPSHSYGPAARNHYLFHYVISGTGTLMADDTSGITQTYSVKSGQGFMIFPQQITTYIADQKLPWEYVWIEFDGLRVKEILELAGLTKSAPIYHAHSKEMREVLKEEMLYIARNPEQPPFHLIGHLYLFMDALTRSCTREQTNSAGRLRDFYIHEAIAFIEQNFQNDISVEDIAEVCGLNRSYFGKIFKETLGRSPQEFLMNYRMVKATELLKLTQLSISEISNAVGYANPLHFSRAFKNVYGESPRIWRQNHRT,not soluble
21,MNRRLELYYTRQLLVISKYCQDQTKEIVLPTVGQNIGDSWITDIFVKLREKLVKYTTQVSRPLATKVVQDSQKEVDAQIAEHTKSIIGVDLTPFYRASDIQDVVDTNIAANVALIKSIPNQYVDKLEALVMNAFQTGQTNEDLAKAIAQLGQSTDSRARLIAADQMGKVNGQINKARQLSMGVETYVWQTAKDERVRKDHQHKQGKTFRWDDPPTGGHPGEPIRCRCTALPNYEDILVD,not soluble
